Target: the molecule itself
Assay: X-ray crystal structure of apo DPPIV (self-association, homodimer)
Experimental: The structure of DPPIV was solved by a combination of heavy-atom derivatives and Seleno-Methionine (Se-Met) phasing in conjunction with non-crystallographic averaging. Heavy atom derivatives were obtained by soaking native DPPIV crystals in heavy atom solutions made using the crystallization solution. The concentration of heavy atom derivative and time of soaking varied between 0.5 mM to 10 mM and 1 to 15 days, respectively. An extensive array of heavy atom derivatives were individually soaked into DPPIV crystals and analyzed. Two heavy atom derivatives were used to determine the phases: di-m-iodobis (ethylene-diamine)-di-platinum (II) nitrate (PIP) and ethyl mercuric thiosalicylic acid sodium salt (EMTS). Data from crystals of apo DPPIV, Se-Met-DPPIV, PIP-DPPIV and EMTS-DPPIV were collected from cryocooled crystals (100K) at the Stanford Synchrotron Radiation Laboratory (SSRL) beam lines 9-1, 9-2 and 11-1 and the Advanced Light Source (ALS) beam lines 5.0.2 and 5.0.3 both using an ADSC Quantum CCD detector. […] Data were collected and integrated to 2.3 Å with MOSFLM (or HKL2000) and scaled with SCALA (or Scalepack) (CCP4 Study Weekend, Eds. Sawyer, L., Isaacs, N. & Bailey, S. 56-62, SERC Daresbury Laboratory, England, 1993).
Crystals were obtained after an extensive and broad screen of conditions, followed by optimization. […]

B1: recombinant human dipeptidyl peptidase IV (DPPIV), residues 39-766 of SEQ ID NO:1 with part of a gp67 signal sequence and a 6x-histidine tag (SEQ ID NO:3) (enzyme)
chain: ADPGGSHHHHHHSRKTYTLTDYLKNTYRLKLYSLRWISDHEYLYKQENNILVFNAEYGNSSVFLENSTFDEFGHSINDYSISPDGQFILLEYNYVKQWRHSYTASYDIYDLNKRQLITEERIPNNTQWVTWSPVGHKLAYVWNNDIYVKIEPNLPSYRITWTGKEDIIYNGITDWVYEEEVFSAYSALWWSPNGTFLAYAQFNDTEVPLIEYSFYSDESLQYPKTVRVPYPKAGAVNPTVKFFVVNTDSLSSVTNATSIQITAPASMLIGDHYLCDVTWATQERISLQWLRRIQNYSVMDICDYDESSGRWNCLVARQHIEMSTTGWVGRFRPSEPHFTLDGNSFYKIISNEEGYRHICYFQIDKKDCTFITKGTWEVIGIEALTSDYLYYISNEYKGMPGGRNLYKIQLSDYTKVTCLSCELNPERCQYYSVSFSKEAKYYQLRCSGPGLPLYTLHSSVNDKGLRVLEDNSALDKMLQNVQMPSKKLDFIILNETKFWYQMILPPHFDKSKKYPLLLDVYAGPCSQKADTVFRLNWATYLASTENIIVASFDGRGSGYQGDKIMHAINRRLGTFEVEDQIEAARQFSKMGFVDNKRIAIWGWSYGGYVTSMVLGSGSGVFKCGIAVAPVSRWEYYDSVYTERYMGLPTPEDNLDHYRNSTVMSRAENFKQVEYLLIHGTADDNVHFQQSAQISKALVDVGVDFQAMWYTDEDHGIASSTAHQHIYTHMSHFIKQCFSLP
modifications: glycosylated; four or five residues per chain carry covalently linked sugar molecules (NAG), positions not given
notes: Secreted from baculovirus-infected insect cells; crystallised as apo protein; The asymmetric unit holds four copies that form two dimers (A with B, C with D); also called DPP4; CD26
**Q.** Does B1 bind?
**A.** binds

Source: patent publication US7344852 (Takeda / Millennium, dated 2008)
